Source: the supplement of paper PMC7877785
± gives the uncertainty stated by the source.

Assay: self-splicing fitness, log relative to wild type (ln ratio); higher = more splicing; Tetrahymena group I intron in knt gene, E. coli kanamycin selection, DiMSum; sequences stand for … in CUCUCU…GGAGGGAAAAGUUAUCAGGCAUGCACCUGGUAGCUAGUCUUUAAACCAAUAGAUUGCAUCGGUUUAAAAGGCAAGACCGUCAAAUUGCGGGAAAGGGGUCAACAGCCGUUCAGUACCAAGUCUCAGGGGAAACUUUGAGAUGGCCUUGCAAAGGGUAUGGUAAUAAGCUGACGGACAUGGUCCUAACCACGCAGCCAAGUCCUAAGUCAACAGAUCUUCUGUUGAUAUGGAUGCAGUUCACAGACUAAAUGUCGGUCGGGGAAGAUGUAUUCUUCUCAUAAGAUAUAGUCGGACCUCUCCUUAAUGGGAGCUAGCGGAUGAAGUGAUGCAACACUGGAGCCGCUGGGAACUAAUUUGUAUGCGAAAGUAUAUUGAUUAGUUUUGGAGUACUCGUGGUCG
In short: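 Fitness was computed with DiMSum as the error-weighted combination of replicate fold changes, kanamycin versus none, each normalised to wild type. The library randomised all eight intron nucleotides of the P1ex region, with the intron placed in the knt kanamycin-resistance gene on pET-22b(+) in E. coli BL21(DE3). Six replicate transformations were grown overnight at 37°C or 30°C on LB agar with or without 25 μg/mL kanamycin, plus 100 μg/mL carbenicillin, 50 μM IPTG and 0.2% rhamnose. Pooled colonies were amplicon-sequenced on an Illumina HiSeq 2500.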

Sequence | self-splicing fitness (ln) (30 °C) | self-splicing fitness (ln) (37 °C)
AUCUAGCAAUAUUACGAACU | -0.13 ± 0.12 | 0.27 ± 0.12
CUGCAGCAAUAUUACGUCUU | -3.15 ± 0.11 | -2.64 ± 0.12
GCACAGCAAUAUUACGCGAU | -2.12 ± 0.16 | -1.55 ± 0.15
CCAGAGCAAUAUUACGUCGC | -3.95 ± 0.32 | -2.49 ± 0.29
AGAAAGCAAUAUUACGAUAG | -3.4 ± 0.38 | -1.02 ± 0.16
AUUCAGCAAUAUUACGUUAU | -1.22 ± 0.079 | 0.0898 ± 0.095
CGAAAGCAAUAUUACGCCAU | -3.31 ± 0.45 | -2.78 ± 0.43
UCCAAGCAAUAUUACGGCGG | -1.42 ± 0.079 | -0.773 ± 0.092
GGGAAGCAAUAUUACGCUCG | -0.703 ± 0.27 | -1.03 ± 0.18
UCGGAGCAAUAUUACGGGCA | -2.38 ± 0.16 | -0.971 ± 0.13
UAGUAGCAAUAUUACGUCCU | -2.53 ± 0.21 | -0.272 ± 0.15
AAACAGCAAUAUUACGCGUU | -3.11 ± 0.11 | -1.1 ± 0.1
AUGAAGCAAUAUUACGGGUA | -1.01 ± 0.097 | -0.761 ± 0.13
GGCCAGCAAUAUUACGAAUA | -3.4 ± 0.36 | -2.71 ± 0.23
CGGCAGCAAUAUUACGCAAA | -2.77 ± 0.2 | -2.43 ± 0.22
UGCAAGCAAUAUUACGCCUU | -1 ± 0.16 | -0.449 ± 0.15
AGAAAGCAAUAUUACGUAGA | -1.52 ± 0.12 | -1.52 ± 0.14
GCUUAGCAAUAUUACGAUCC | -0.0566 ± 0.1 | 0.226 ± 0.13
AUACAGCAAUAUUACGAGCU | -1.51 ± 0.1 | -1.26 ± 0.11
AUAGAGCAAUAUUACGCAGG | -3.06 ± 0.2 | -1.86 ± 0.23
GGCCAGCAAUAUUACGGCAG | -0.833 ± 0.058 | -0.191 ± 0.1
GAUUAGCAAUAUUACGGCGG | -0.96 ± 0.16 | -2.17 ± 0.25
CAGAAGCAAUAUUACGUUCA | -2.03 ± 0.14 | -0.728 ± 0.1
GAUAAGCAAUAUUACGCCGC |  | -1.99 ± 0.41
AUUGAGCAAUAUUACGGCGG | -3.01 ± 0.19 | -1.05 ± 0.38

Sequence | self-splicing fitness (ln) (30 °C) | self-splicing fitness (ln) (37 °C)
GAUUAGCAAUAUUACGCCCA | -0.748 ± 0.11 | 0.123 ± 0.14
GUGUAGCAAUAUUACGGGAA | -2.77 ± 0.19 | -1.74 ± 0.2
AAUCAGCAAUAUUACGCAUG | -0.409 ± 0.038 | 0.349 ± 0.058
UUUAAGCAAUAUUACGAAGU |  | -1.62 ± 0.45
AACAAGCAAUAUUACGCAUG | -1.7 ± 0.082 | -0.726 ± 0.1
ACCAAGCAAUAUUACGGAGU | -3.6 ± 0.098 | -2.25 ± 0.12
AUGGAGCAAUAUUACGAAGG | -3 ± 0.23 | -2.29 ± 0.34
GAUAAGCAAUAUUACGUACC | -0.984 ± 0.2 | -0.641 ± 0.21
UCGUAGCAAUAUUACGGAGC | -2.59 ± 0.18 | -2.35 ± 0.39
CAGGAGCAAUAUUACGCGUA | -2.85 ± 0.16 | -2.03 ± 0.18
AUUAAGCAAUAUUACGUGUG | -1.9 ± 0.089 | -1.18 ± 0.1
GGAGAGCAAUAUUACGGCCA | -2.34 ± 0.36 | -1.21 ± 0.35
CCGGAGCAAUAUUACGUGAA |  | -1.86 ± 0.31
CCGGAGCAAUAUUACGGAUU |  | -1.82 ± 0.2
GGUUAGCAAUAUUACGUUGG | -4.01 ± 0.34 | -1.72 ± 0.18
UAGGAGCAAUAUUACGGUAA | -3.41 ± 0.34 | -2.26 ± 0.31
AGGCAGCAAUAUUACGAAUA | -2.67 ± 0.25 | -2.08 ± 0.22
GUACAGCAAUAUUACGGUUG | -3.9 ± 0.23 | -1.86 ± 0.2
CUUUAGCAAUAUUACGAGGC | -2.85 ± 0.41 | -1.36 ± 0.26
CCCGAGCAAUAUUACGGGCC | -3.99 ± 0.27 | -2.26 ± 0.26
UUGGAGCAAUAUUACGCAUU | -1.87 ± 0.33 | 
CAUUAGCAAUAUUACGUCGG | -0.0974 ± 0.13 | 0.403 ± 0.14
AAAAAGCAAUAUUACGGAAC | -2.97 ± 0.16 | -1.77 ± 0.2
GGAGAGCAAUAUUACGGGAU | -4.2 ± 0.36 | -3.23 ± 0.35
GCGAAGCAAUAUUACGCGCG | -2.34 ± 0.17 | -1.28 ± 0.22

Sequence | self-splicing fitness (ln) (30 °C) | self-splicing fitness (ln) (37 °C)
GGGGAGCAAUAUUACGCACG | -1.89 ± 0.17 | -1.44 ± 0.24
AUCUAGCAAUAUUACGAGGA | -2.83 ± 0.32 | -2.01 ± 0.21
GGAGAGCAAUAUUACGGAGG | -2.93 ± 0.48 | -0.819 ± 0.23
UGGCAGCAAUAUUACGGUGU | -3.4 ± 0.14 | -2.41 ± 0.16
UGGCAGCAAUAUUACGAUCU | -0.344 ± 0.11 | -0.112 ± 0.11
UCGCAGCAAUAUUACGGUAA | -0.786 ± 0.061 | -0.563 ± 0.071
UGAGAGCAAUAUUACGAACU | -3.05 ± 0.43 | -2.02 ± 0.24
CAGCAGCAAUAUUACGAGCG | -0.131 ± 0.053 | -0.0622 ± 0.066
CAUGAGCAAUAUUACGUAAG | -0.906 ± 0.096 | -0.568 ± 0.11
AAUCAGCAAUAUUACGCUCU | -0.00647 ± 0.077 | 0.0812 ± 0.097
CAGUAGCAAUAUUACGCAAC |  | -1.53 ± 0.36
AAUUAGCAAUAUUACGUUUC | -2.89 ± 0.23 | -1.57 ± 0.23
UAUCAGCAAUAUUACGGCGA | -0.382 ± 0.1 | 1.02 ± 0.13
ACUAAGCAAUAUUACGCGAA | -1.57 ± 0.13 | -1.22 ± 0.17
UUUGAGCAAUAUUACGUUAA | -2.96 ± 0.29 | -1.57 ± 0.22
GUCAAGCAAUAUUACGGGUG | -4.19 ± 0.24 | -2.73 ± 0.17
GUUCAGCAAUAUUACGGGAU | -2.24 ± 0.18 | -1.58 ± 0.35
CCCGAGCAAUAUUACGUACC | -2 ± 0.21 | 
CUCGAGCAAUAUUACGUCUU | -4.4 ± 0.21 | -3.37 ± 0.21
CGUCAGCAAUAUUACGUCGA | -2.18 ± 0.1 | -1.77 ± 0.14
ACCCAGCAAUAUUACGGUGA | -0.516 ± 0.043 | 0.305 ± 0.059
CCGCAGCAAUAUUACGAUCA | -2.72 ± 0.22 | -1.85 ± 0.27
AUGUAGCAAUAUUACGACGC | -0.952 ± 0.12 | 0.119 ± 0.082
CAACAGCAAUAUUACGAAUU | -4.19 ± 0.26 | -1.84 ± 0.12
UUUGAGCAAUAUUACGUCUA | -1.05 ± 0.2 | -1.06 ± 0.21

Sequence | self-splicing fitness (ln) (30 °C) | self-splicing fitness (ln) (37 °C)
GUGGAGCAAUAUUACGCAGU | -2.88 ± 0.18 | -2.58 ± 0.31
UACUAGCAAUAUUACGCAGU | -3.26 ± 0.35 | -3.09 ± 0.34
ACCUAGCAAUAUUACGUUGG | -2.35 ± 0.092 | -2.46 ± 0.14
GAACAGCAAUAUUACGUCUU | -0.598 ± 0.07 | 0.229 ± 0.089
ACUAAGCAAUAUUACGUGAC | -3.82 ± 0.21 | -1.28 ± 0.14
AUGAAGCAAUAUUACGAACU | -0.587 ± 0.074 | 0.606 ± 0.098
GGCGAGCAAUAUUACGAUUA | -2.12 ± 0.22 | -1.44 ± 0.17
GUUGAGCAAUAUUACGAAAG | -2.93 ± 0.38 | 0.317 ± 0.17
UAUCAGCAAUAUUACGACAC | -2.03 ± 0.2 | 0.634 ± 0.23
UGUCAGCAAUAUUACGCGGC | -3.06 ± 0.24 | -2.09 ± 0.31
CUUAAGCAAUAUUACGAUGC | -3.42 ± 0.35 | -2.1 ± 0.33
GCUGAGCAAUAUUACGUCAC | -2.4 ± 0.37 | -1.66 ± 0.36
CAAUAGCAAUAUUACGGUUG | -2.6 ± 0.12 | -1.67 ± 0.12
GUAAAGCAAUAUUACGUAGC | -2.6 ± 0.11 | -0.771 ± 0.097
CACAAGCAAUAUUACGUCUU | -3.88 ± 0.17 | -2.25 ± 0.14
GUCAAGCAAUAUUACGGAAC | -3.13 ± 0.24 | -3.19 ± 0.21
GUACAGCAAUAUUACGAGAA | -2.36 ± 0.45 | -1.51 ± 0.27
CAUCAGCAAUAUUACGCGUU | -2.17 ± 0.1 | -1.54 ± 0.13
AGCCAGCAAUAUUACGACGA | -1.97 ± 0.1 | -1.76 ± 0.12
CAAGAGCAAUAUUACGUUUA | -2.84 ± 0.26 | -1.61 ± 0.23
CUACAGCAAUAUUACGUGCU |  | -2 ± 0.13
ACUUAGCAAUAUUACGUGCA | -1.1 ± 0.055 | -0.535 ± 0.072
